doi:10.1101/2025.11.18.689095 (bioRxiv, 2025)

Assays:
Conditions in all cases: both partners purified
[1] = target: T1, ^19F-labeled Tom70 (5-fluoro-tryptophan, residues 108–608) (human, UniProt O94826 108-608, 5-fluoro-tryptophan at W169 and W523); assay: NMR titration; […]) 130 μM, […]) 400 μM, […]; 25°C; […]
T1 construct: human Tom70, residues 108-608; also called ^19F Tom70; 5F-Trp Tom70; source: E. coli BL21(DE3) in M9 media supplemented with 5-fluoro-tryptophan, purified as unlabeled Tom70; not shown: Avi, N-terminal, cleaved; His6, N-terminal, cleaved
T1 sequence: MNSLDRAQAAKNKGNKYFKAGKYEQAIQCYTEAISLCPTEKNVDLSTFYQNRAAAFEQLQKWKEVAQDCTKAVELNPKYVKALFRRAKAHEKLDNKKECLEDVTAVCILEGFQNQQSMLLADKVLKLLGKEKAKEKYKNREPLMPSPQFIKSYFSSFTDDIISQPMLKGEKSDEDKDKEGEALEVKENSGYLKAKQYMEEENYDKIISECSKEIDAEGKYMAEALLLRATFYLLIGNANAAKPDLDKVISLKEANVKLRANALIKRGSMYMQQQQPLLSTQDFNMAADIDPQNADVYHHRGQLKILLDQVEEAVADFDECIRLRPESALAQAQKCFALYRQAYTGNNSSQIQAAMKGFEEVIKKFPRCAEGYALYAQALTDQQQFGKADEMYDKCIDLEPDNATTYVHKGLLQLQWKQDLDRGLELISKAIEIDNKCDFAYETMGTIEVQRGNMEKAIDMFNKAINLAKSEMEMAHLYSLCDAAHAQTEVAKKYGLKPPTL

[2] = target: T2, human Tom70 (residues 108–608) (human, UniProt O94826 108-608); assay: ITC; Orf9b_(Helix) (120 μM) titrated into 15 μM Tom70 or Tom70:Hsp90_(EEVD) complex (15 μM Tom70: 400 μM Hsp90_(EEVD)); 20°C; 20 mM sodium phosphate pH 7, 100 mM NaCl, 2 mM TCEP; 1:1 binding model
T2 construct: human Tom70 (translocase of outer mitochondria membrane 70), residues 108-608; N-terminal Avi tag, His6 tag, (GGS)5 linker and TEV site removed by TEV protease; also called hTom70; free Tom70; source: E. coli BL21 (DE3), purified (Ni-NTA, TEV cleavage, second Ni column, SEC); not shown: Avi, N-terminal, cleaved; His6, N-terminal, cleaved
T2 sequence: T1 sequence

[3] = target: T3, Tom70:Hsp90_(EEVD) complex (human, UniProt O94826 108-608, C-terminus not amidated (free carboxyl)); assay: as above
T3 construct: human Tom70, residues 108-608; tyrosine added to aid with quantification; C-terminal residues 724-732 of human Hsp90α; also called Tom70 complexed with Hsp90_(EEVD) peptide; not shown: Avi, N-terminal, cleaved; His6, N-terminal, cleaved

[4] = target: T4, human Hsp90α (residues 1–732), full-length (human, UniProt P07900 1-732); assay: ITC; […] (400 μM), […] (400 μM), […] (500 μM) […] (20 μM); 20°C; 20 mM sodium phosphate pH 8, 150 mM NaCl, 2 mM TCEP, 10% glycerol; 1:1 binding model
T4 construct: human Hsp90α, residues 1-732; also called full-length Hsp90; heat shock protein 90; source: E. coli BL21 Star (DE3) pLysS, purified (Ni-INDIGO, TEV cleavage, second Ni-INDIGO, HiPrep Q); not shown: Avi, N-terminal, cleaved; His6, N-terminal, cleaved

B1: Orf9b_(Helix) peptide (peptide)
peptide: IILRLGSPLSLNMARKTLNSLEDKAFQLTPIAVQY
notes: SARS-CoV-2 Orf9b residues 44-77, the helical region seen in the Tom70-Orf9b structure; tyrosine added to aid with quantification
B1: binds [1]; binds [2]; binds [3].

B2: Tom70:Orf9b_(Helix) complex (complex)
chain 1: T1 sequence
chain 2: B1 peptide
notes: human Tom70, residues 108-608; SARS-CoV-2 Orf9b residues 44-77; tyrosine added to aid with quantification; not shown: Avi, N-terminal, cleaved; His6, N-terminal, cleaved
In the case of B2, the “fold by which the inhibitory effect of full-length Orf9b exceeds that of Orf9b_(Helix)” value [4] is reported as 2.4 fold.
